Substitutions are numbered along the chain they refer to. Values belong to the binder of their own block, whether it stands above or below them.
Tests used:
[1] = target: T1, human IL2Rβ Fc fusion protein (human, UniProt P14784 27-239); test: ELISA, Fc-tagged receptor coated, anti-HisTag-HRP
T1 construct: also called Recombinant Fc-tagged human IL2Rβ; not shown: Fc
T1 sequence (looked up): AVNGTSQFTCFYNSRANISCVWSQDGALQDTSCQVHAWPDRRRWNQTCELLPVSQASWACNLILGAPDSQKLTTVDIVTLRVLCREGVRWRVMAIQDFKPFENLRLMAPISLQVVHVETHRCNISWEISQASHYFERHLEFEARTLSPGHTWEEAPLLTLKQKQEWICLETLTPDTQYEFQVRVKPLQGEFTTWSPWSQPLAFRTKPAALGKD
Summary of the method: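 IL2 mutants, diluted from 1000 nM to 0 nM, were incubated 2 h at RT on plates coated overnight at 4 °C with Fc-tagged human IL2Rα (or IL2Rβ). Bound protein detected with anti-HisTag-HRP (1:5000, 1 h) and TMB. Absorbance read at 450 nm after acid stop.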

[2] = target: T2, human IL2Rα Fc fusion protein (human, UniProt P01589 22-213, limits assumed); test: ELISA, receptor-Fc coated, anti-Flag HRP; Table 9 ELISA: titration 100 nM to 0 nM, anti-Flag HRP detection
T2 construct: also called Recombinant Fc-tagged human IL2Rα; not shown: Fc
T2 sequence (looked up): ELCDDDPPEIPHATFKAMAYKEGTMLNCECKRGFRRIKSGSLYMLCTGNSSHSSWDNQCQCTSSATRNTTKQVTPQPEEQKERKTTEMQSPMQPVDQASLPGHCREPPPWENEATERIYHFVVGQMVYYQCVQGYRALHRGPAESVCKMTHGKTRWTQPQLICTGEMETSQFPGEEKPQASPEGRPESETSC
Procedure: Briefly, 384 well plate was immobilized with human IL2Rα and IL2Rβ Fc fusion proteins at a final concentration of 2 ug/mL in 1×PBS in total volume of 25 uL per well. The plate was incubated overnight at 4 C and blocked with 80 uL of superblock per well for 1 hour. […] Each dilution was added to IL2Rα or IL2Rβ wells in parallel in duplicates. The IL2 mutant binding was detected by adding 25 uL of anti-Flag HRP diluted at 1:5000 in 1×PBST. In between each step, the plate was washed three times with 1×PBST using a plate washer. The plate was then developed with 25 uL of TMB substrate for five minutes and stopped by adding 25 ul of 2N sulfuric acid. The plate was read at OD450 nm Biotek plate reader and the EC50 was analyzed with Prism 8.1 software to generate EC50 values (FIG. 15A for IL2Rα, and FIG. 15B for IL2Rβ, summarized in Table 9).

[3] = target: T1, human IL2Rβ Fc fusion protein; test: ELISA, receptor-Fc coated, anti-Flag HRP
Summary of the method: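 Plates coated overnight at 4 C with IL2Rα or IL2Rβ Fc fusion at 2 ug/mL, then blocked. Flag-tagged IL2 mutant dilutions were added in duplicate, and binding was detected with anti-Flag HRP (1:5000) and TMB for 5 min. EC50 was fitted from OD450.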

human IL2Rβ [4] = target: T3, human IL2Rβ (human, UniProt P14784 27-239); test: SPR, IL2Rβ captured on Protein A chip
T3 construct: also called IL2β; CD122
T3 sequence (looked up): T1 sequence (looked up)
Procedure: The assay was run with Biacore T200 control software version 2.0. For each cycle, 1 ug/mL of human IL2Rβ was captured for 60 seconds at flow rate of 10 uL/min on flow cell 2 in 1×HBSP buffer on Protein A sensor chip. 100 nM of HIS and Flag tag purified each IL2 mutant was 2-fold serial diluted and injected onto both reference flow cell 1 and IL2Rβ captured flow cell 2 for 150 seconds at flow rate of 30 uL/min followed by washing for 300 seconds. The flow cells were then regenerated with Glycine pH2 for 60 seconds at a flow rate of 30 uL/min. The assay was set up with 8 serial diluted concentration points in 96-well format. The kinetics data was analyzed with Biacore T200 evaluation software 3.0. The specific binding response unit was derived from subtraction of binding to reference flow cell 1 from target flow cell 2 (FIGS. 16A-16F, Table 10).

human IL2Rβ [5] = target: T3, human IL2Rβ; test: SPR, receptor captured on Protein A chip, E. coli-produced IL2
human IL2Rβ [6] = target: T3, human IL2Rβ; test: SPR, receptor captured on Protein A chip, mammalian-produced IL2
Procedure: The assay was run with Biacore T200 control software version 2.0. For each cycle, 1 μg/mL of human IL2Rβ or IL2Rα was captured for 60 seconds at flow rate of 10 μL/min on flow cell 2 in 1×HBST buffer on Protein A sensor chip. Two-fold serial diluted HIS tag purified engineered IL2 mutant was injected onto both reference flow cell 1 and IL2Rβ or IL2Rα captured flow cell 2 for 150 seconds at flow rate of 30 μL/min followed by washing for 300 seconds. The flow cells were then regenerated with Glycine pH 2 for 40 seconds at a flow rate of 30 μL/mins. Eight concentration points from 0 to 100 nM were assayed for each IL2Rβ agonist clone 96-well plate format. The kinetics data was analyzed with Biacore T200 evaluation software 3000. The specific binding response unit was derived from subtraction of binding to reference flow cell 1 from target flow cell 2.

human IL2Rα [7] = target: T4, human IL2Rα (human, UniProt P01589 22-213, limits assumed); test: SPR (Biacore T200), human IL2Rα, IL2 mutant in two-fold dilutions from 100 nM (Example 13)
T4 construct: also called IL2α; CD25
T4 sequence (looked up): T2 sequence (looked up)

human IL2Rβ [8] = target: T3, human IL2Rβ; test: SPR, IL2Rβ captured on Protein A chip; remark: listed apart in the source
Procedure: Kinetic analysis of the receptor binding activities of IL2Rβ agonist with IL2Rα reduced activity mutations have been assessed by SPR technology with Biacore T200. The assay was run with Biacore T200 control software version 2.0. For each cycle, 1 ug/mL of human IL2Rβ was captured for 60 seconds at flow rate of 10 ul/min on flow cell 2 in 1×HBSP buffer on Protein A sensor chip. 100 nM of HIS and Flag tag purified each IL2 mutant was 2 fold serial diluted and injected onto both reference flow cell 1 and IL2Rβ captured flow cell 2 for 150 seconds at flow rate of 30 ul/mins followed by wash for 300 seconds. The flow cells were then regenerated with Glycine pH2 for 60 seconds at flow rate of 30 ul/mins. The assay was set up with 8 serial diluted concentration points in 96 well format. The kinetics data was analyzed with Biacore T200 evaluation software 3.0. The specific binding response unit was derived from subtraction of binding to reference flow cell 1 from target flow cell 2.

human IL2Rα [9] = target: T4, human IL2Rα; test: SPR (Biacore T200), human IL2Rα, IL2 mutant in two-fold dilutions from 100 nM (Example 13); remark: listed apart in the source
[10] = target: T2, human IL2Rα Fc fusion protein; test: ELISA, single point, Fc-tagged human IL2Rα coated, anti-His-HRP; concentration not printed (Example 14)
Procedure: Recombinant Fc-tagged human IL2Rα and IL2Rβ were added in 25 uL of 1×PBS to wells of 384-well plate and incubated overnight at 4° C. to coat the plates. Plates were washed three times with 0.05% Tween20/1×PBS. Plates were blocked with 100 uL of SuperBlock for 1 hr at RT and then washed 3 times with 0.05% Tween20/1×PBS. IL2 mutants were diluted in 0.05% Tween 20/1×PBS from 1000 nM to 0 nM and added to plates for 2 hrs at room temperature. Plates were then washed 6 times with 0.05% Tween20/1×PBS. Anti-HisTag-HRP was diluted 1:5000 in 0.05% Tween20/1×PBS and added to plates for 1 hr at RT. Plates were then washed 6 times with 0.05% Tween 20/1×PBS, and TMB was added to develop blue color. Reactions were stopped with 2N […] and light absorbance at 450 nm was read on a BioTek plate reader.

human IL2Rα [11] = target: T4, human IL2Rα; test: SPR (Biacore T200), human IL2Rα, one trace per clone drawn, concentrations not printed (Example 13)
human IL2Rβ [12] = target: T3, human IL2Rβ; test: SPR, multi-concentration
human IL2Rα [13] = target: T4, human IL2Rα; test: SPR (Biacore T200), human IL2Rα, IL2 mutant in two-fold dilutions from 100 nM (Example 13); remark: listed apart in the source
human IL2Rα [14] = target: T4, human IL2Rα; test: as above; remark: listed apart in the source
human IL2Rβ [15] = target: T3, human IL2Rβ; test: SPR, single concentration
human IL2Rα [16] = target: T4, human IL2Rα; test: SPR (Biacore T200), human IL2Rα, single concentration of the IL2 protein, not printed (Example 13)

B1: EP001 (ligand)
chain: APTSSSTKKTQLQLEHLLLDLQMILNGINNYKNPKLTRMLTFKFYMPKKATELKHLQCLEEELKPLEEVLNLAQSKNFHLTARDAVDNMRVIIQELKGSETTFMCEYADETATIVEFLNRWITFCQSIISTLT
notes: Produced in E. coli or mammalian cells; also called EP0001; not shown: C-terminal Flag and 6xHis tags
EC50 [1]: 8.1 nM | EC50 [2]: 259 nM | EC50 [3]: 0.7 nM | Kd (human IL2Rβ [4]): 1.52 nM | koff (human IL2Rβ [4]): 0.00589 s⁻¹ | kon (human IL2Rβ [4]): 3.86e+06 M⁻¹ s⁻¹ | Kd (human IL2Rβ [5]): 1.12 nM | koff (human IL2Rβ [5]): 0.00365 s⁻¹ | kon (human IL2Rβ [5]): 3.26e+06 M⁻¹ s⁻¹ | relative activity IL2Rβ (KD: fold) against WT IL2 (human IL2Rβ [5]): 3890 fold | Kd (human IL2Rβ [6]): 0.743 nM | koff (human IL2Rβ [6]): 0.00417 s⁻¹ | kon (human IL2Rβ [6]): 5.61e+06 M⁻¹ s⁻¹ | relative activity IL2Rβ (KD: fold) against WT IL2 (human IL2Rβ [6]): 1360 fold

B4: EP339 (ligand)
chain: B1 chain with K35L, R38D, F42R, A82P, V86I, M89I, I93V
notes: not shown: His and Flag tags
EC50 [1]: 96.3 nM | binding result [10]: no binding (tested: not printed) | binding result (human IL2Rα [11]): no binding (tested: not printed) | Kd (human IL2Rβ [12]): 35.9 nM

B7: EP338 (ligand)
chain: B1 chain with K35L, R38D, F42R, V86I, D87S, M89I, R90N
notes: not shown: His and Flag tags
EC50 [1]: 105 nM | binding result [10]: no binding (tested: not printed) | binding result (human IL2Rα [11]): no binding (tested: not printed) | Kd (human IL2Rβ [12]): 38.3 nM

B8: EP341 (ligand)
chain: APTSSSTKKTQLQLEHLLLDLQMILNGINNYKNPKLTDMLTFKFSMPKKATELKHLQCLEEELKPLEEVLNLAQSKNFHLTARDAIDNINVIVQELKGSETTFMCEYADETATIVEFLNRWITFSQSIISTLTGSHHHHHH
EC50 [1]: 64.1 nM | Kd (human IL2Rβ [15]): 2.54 nM | binding result [10]: no binding (tested: not printed) | binding result (human IL2Rα [16]): no binding (tested: single concentration, not printed)

Now from value to binder:

binding result (human IL2Rα [7]): no binding (tested: 100 nM) | Kd (human IL2Rβ [8]): 0.611 nM | koff (human IL2Rβ [8]): 0.00509 s⁻¹ | kon (human IL2Rβ [8]): 8.34e+06 M⁻¹ s⁻¹
B2: EP407 (ligand)
chain: B1 chain with R38D, Y45S
notes: not shown: His and Flag tags

binding result (human IL2Rα [9]): no binding (tested: 100 nM) | Kd (human IL2Rβ [8]): 0.233 nM | koff (human IL2Rβ [8]): 0.000598 s⁻¹ | kon (human IL2Rβ [8]): 2.56e+06 M⁻¹ s⁻¹
B3: EP408 (ligand)
chain: APTSSSTKKTQLQLEHLLLDLQMILNGINNYKNPKLTDMLTFKFSMPKKATELKHLQCLEEELKPLEEVLNLAQSKNFHLGVTDSISNAIVLARELKGSETTFMCEYADETATIVEFLNRWITFCQSIISTLT
notes: not shown: His and Flag tags

binding result (human IL2Rα [13]): no binding (tested: 100 nM) | Kd (human IL2Rβ [8]): 0.108 nM | koff (human IL2Rβ [8]): 0.000397 s⁻¹ | kon (human IL2Rβ [8]): 3.68e+06 M⁻¹ s⁻¹
B5: EP402 (ligand)
chain: B3 chain with K35S, D38R, F42G, S45Y
notes: not shown: His and Flag tags

binding result (human IL2Rα [14]): no binding (tested: 100 nM) | Kd (human IL2Rβ [8]): 0.855 nM | koff (human IL2Rβ [8]): 0.00616 s⁻¹ | kon (human IL2Rβ [8]): 7.21e+06 M⁻¹ s⁻¹
B6: EP401 (ligand)
chain: B1 chain with K35S, F42G
notes: not shown: His and Flag tags

From patent publication US20230002466A1 (ELPIS BIOPHARMACEUTICALS, published 2023)
